Measurements as given in the nanobody polyreactivity screen of Harvey et al. (2022).

experiment: yeast display, Sf9 membrane polyspecificity reagent, FACS + sequencing; frameworks hold sequencing errors
Method in brief: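 After 36–48 hours of galactose induction, yeast (Saccharomyces cerevisiae BJ5465) displaying a synthetic nanobody library were stained at 4 °C for 1 hour with 10% biotinylated, detergent-solubilized Sf9 membrane reagent. Streptavidin microbeads enriched the stained cells before FACS sorting into low and high (top ~1%) gates on anti-HA and streptavidin fluorescence. Each clone's polyreactivity label reflects its gate of origin.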

Row | Sequence | polyreactivity (PSR sort gate)
1 | QVQLVESGGGLVQAGGSLRLSCAASGRTFDLNAMGWYRQAPGKERELVAGISSSGGRTYYADSVKGRFTISRDNAKNTVYLQMNSLKPEDTAVYYCAKVYPSYVLRKYDYWGQGTQVTVSS | high polyreactivity
2 | QVQLVESGGGLVQAGGSLRLSCAASGRTFDPYAMGWYRQAPGKERELVAAITSGDDTYYADSVKGRFTISRDTAKNTVYLQMNSLKPEETAVYFCAAASFTPDYYSHDYWGQGTQVTVSS | low polyreactivity
3 | QVQLVESGGGLVQAGGSLRLSCAASGRTFDPYARGGYRQAPGKERELVASISRGGSTYADSVKGRFTISRDNAKNTVYLQMNSLKPEDTAVYYCNTSLYTEGDAMDYWGQGTQVTVSS | low polyreactivity
4 | QVQLVESGGGLVQAGGSLRLSCAASGRTFDRYAMGWYRQAPGKERELVAAISRGGSTNYADSVKGRFTISRDNAKNTVYLQMNSLKPEDTAVYYCAARVSFLHLRRAYDYWGQGTQVTVSS | high polyreactivity
5 | QVQLVESGGGLVQAGGSLRLSCAASGRTFDRYTMGWYRRAPGKERELVATIRSTGSTYYADSVKGRFTISRDNAKNTVYLQMNSLKTEDTAVYYCNRKYRSSLPYGDGYWGQGTQVTVSS | low polyreactivity
6 | QVQLVESGGGLVQAGGSLRLSCAASGRTFDSNAMGWYRQAPGKERELVAAISWSGGSTYYADSVKGRFTISRDNAKNTVYLQMNSLKPEDTAVYYCNRLGRHAPATRYGYWGQGTQVTVSS | high polyreactivity
7 | QVQLVESGGGLVQAGGSLRLSCAASGRTFDVNAMGWYRQAPGKERELVAAITWDGGSTYYADSVKGRFTISRDNAKNTVYLQMNSLKPEDTAVYYCAADFIQGAWWYVTYRYTYEYWGQGTQVTVSS | low polyreactivity
8 | QVQLVESGGGLVQAGGSLRLSCAASGRTFDYNAMGWYRQAPGKERELVADISNGGTTSYADSVKGRFTISRDNAKNTVYLQMNSLKPEDTAVYYCATLYDWSSFANSYWYFGWEEDYWGQGTQVTVSS | low polyreactivity
9 | QVQLVESGGGLVQAGGSLRLSCAASGRTFDYNAMGWYRQAPGKERELVARISNGDSTYADSVKGRFTISRDNAKNTVYLQMNSLKPEDTAVYYCAARQEPGWYPDVWWEYDYWGEGTQVTVSS | low polyreactivity
10 | QVQLVESGGGLVQAGGSLRLSCAASGRTFDYNTMGWYRPAPGKDRELVAAISASGGSTYYADSVKGRFTISRDNAKNTVYLQMNSLKPEDTAVYYCNTYAGVEYYHWGQGTQVTVSS | low polyreactivity
11 | QVQLVESGGGLVQAGGSLRLSCAASGRTFDYYAMGWYRQAPGKERELVAAISSTGTSTYYGDSVKGRFTISRDNAKNTVYLQMNRLKPVDTAVYYCSAVSWYEYDYWGQGTQVSVSS | high polyreactivity
12 | QVQLVESGGGLVQAGGSLRLSCAASGRTFDYYVMGWYRQAPGKERELVAAISTSGGRTYYADSVKGRFTISRDNAKNTVYLQMNSLKPEDTAVYYCAAYWGGWSFRYLYDYWGQGTQVTVSS | high polyreactivity
13 | QVQLVESGGGLVQAGGSLRLSCAASGRTFEANAMGWYRQAPGKERELVASISRSGGNTYYADSVKGRFTISRDNAKNTGYLQMNSLKPEDTAVYYCAARFRVGQRRFNYWGQGTQVTVSS | high polyreactivity
14 | QVQLVESGGGLVQAGGSLRLSCAASGRTFEFYTMGWYRQAPGKERELVAAINWSGSRTYYADSVKGRFTISRDNAKNTVYLQMNSLKPEDTAVYYCNAGEKRGLISIQGYDYWGQGTQVTVSS | high polyreactivity
15 | QVQLVESGGGLVQAGGSLRLSCAASGRTFEGNAMGWYRQAPGKERELDAAITSGGRTNYADSVKGRFTISRDNAKNTVYLQMNSLKPEDTAVYYCAVETRDRSTSFPGQAYDYWGQGSQVTVSS | low polyreactivity
16 | QVQLVESGGGLVQAGGSLRLSCAASGRTFEGNAMGWYRQAPGKERELVAAINSSGGSTYYADSVKGRFTISRDNAKNTVYLQMNSLKPEDTAVYYCNAVAGPQGVKLYDYWGQGTQVTVSS | low polyreactivity
17 | QVQLVESGGGLVQAGGSLRLSCAASGRTFEGNAMGWYRQAPGKERELVAAITSGGRTNYADSVKGRFTISRDNAKNTVYLQMNSLKPEDTAVYYCAAGQVSVGTIAKYDYWGQGTQVTVSS | low polyreactivity
18 | QVQLVESGGGLVQAGGSLRLSCAASGRTFELNAMGWYRQAPGKERELVAAISWSGGSTYYADSVKGRFTISRDNAKNTVYLQMNSLKPEDTAVYYCAAQYQQGPFVKYYYWGQGTQVTVSS | high polyreactivity
19 | QVQLVESGGGLVQAGGSLRLSCAASGRTFEQYAMGWYRQAPGKERELVAAISGSGGSTFYADSVKGRFTISRDNAKNTVYLQMNSLKPEDTAVYYCAVDAYPPFFYFTSVWFSYDYWGQGTQVTVSS | low polyreactivity
20 | QVQLVESGGGLVQAGGSLRLSCAASGRTFESYAMGWYRPAPGKERELVAAITWSGGDTYYADSVKGRFTISRDNAKNTVYLQMNSLKPEDTAVYYCAKEQGLYSVSPYDYWGQGTQVTVSS | low polyreactivity
21 | QVQLVESGGGLVQAGGSLRLSCAASGRTFESYAMGWYRQAAGKERELVAAIRSRGGSTNYADSVKGRFTISRDNAKNTVYLQMNSLKPEDTAVYYCNKDGTWVARAVTYADFDYWGQGTQVTVSS | low polyreactivity
22 | QVQLVESGGGLVQAGGSLRLSCAASGRTFETNAMGWYRQAPGKERELVASINWSGGSTYYADSVKGRFTISRDNAKNTVYLQMNILKPEDTAVYYCAADHSYWDWWSYYYWGQGTQVTVSS | low polyreactivity

Row | Sequence | polyreactivity (PSR sort gate)
23 | QVQLVESGGGLVQAGGSLRLSCAASGRTFEYYAMGWYRQAPGKERELVAAIDSGGSTNYADSVKGRFTISRDNAKNTVYLQMNSLKPEDTAVYYCATEVDQNYNYDYWGQCTQVTVSS | low polyreactivity
24 | QVQLVESGGGLVQAGGSLRLSCAASGRTFEYYAMGWYRQAPGKERELVAAIDSGGSTNYADSVKGRFTISRDNAKNTVYLQMNSLKPEDTAVYYCATEVDQNYNYDYWGQGTQVTVSS | low polyreactivity
25 | QVQLVESGGGLVQAGGSLRLSCAASGRTFFCYAMGWYRQAPGKERELVAAITYRGGGTYYADSVKGRFTISRDNAKNTVNLQMNSLKPEDTAVYYCAAEYWVGVYLYDYWGQGTQVTVSS | high polyreactivity
26 | QVQLVESGGGLVQAGGSLRLSCAASGRTFFDYAMGWYRQAPGKERELVAAITSSGSSTYYADSVKGRFTISRDNAKNTVYLQMNSLKPEDTAVYYCAAGASANKKITSYDYWGQGTQVTVSS | low polyreactivity
27 | QVQLVESGGGLVQAGGSLRLSCAASGRTFFFNAMGWYRQAPGIERELVATISWNGGDTYYADSVKGRFTISRDNAKNTVYLQMNSLKPEDTAVYDCNARVLWGQGTQVTVSS | high polyreactivity
28 | QVQLVESGGGLVQAGGSLRLSCAASGRTFFGYAMGWYRQAPGKERELVAAISRGGGRTYYADSVKGRFTISRDNAKNTVYLQMNSLKPEDTAVYYCNAVTFSFYLYDWGQGTQVTVSS | high polyreactivity
29 | QVQLVESGGGLVQAGGSLRLSCAASGRTFFGYAMGWYRQAPGKERELVAAISSRGDSTYYADSVKGRFTISRDNAKNTVYLQMNSLKPEDTAVYYCNAPVYTAAGYRYGTVRYGYWGQGTQVTVSS | low polyreactivity
30 | QVQLVESGGGLVQAGGSLRLSCAASGRTFFGYAMGWYRQATGKERELVAAINWGGASTYYADSVKGRFTISRDNAKNTVYLQMNSLKPEDTAVYYCAADSVPSRPTYGRYDYWGQGTQVTVSS | low polyreactivity
31 | QVQLVESGGGLVQAGGSLRLSCAASGRTFFHYAMGWYRQAPGKERELVAGISSGGRTKYADSVKGRFTISRDNAKNTVYLQMNSLKPEDTAVYYCAASYIVWLTRGAPRKRFDYWGQGTQVTVSS | high polyreactivity
32 | QVQLVESGGGLVQAGGSLRLSCAASGRTFFINTMGWYRQAPGKEREFVAAITWSAGRTYYADSVKGRFTISRDNAKNTVYLQMNSLKPEDTAVYYCAAALHGHTFPFYYWGQGTLVTVSS | low polyreactivity
33 | QVQLVESGGGLVQAGGSLRLSCAASGRTFFKYVMGWYRQAPGKERELVAAISSGGSTNYADSVKGRFTISRDNAKNTVYLQMNSLKPEDTAVYYCATYDPARSTQGYDYWGQGTQVTVSS | high polyreactivity
34 | QVQLVESGGGLVQAGGSLRLSCAASGRTFFKYVMGWYRQAPGKERELVAAISYRSGSTYYADSVKGRFTISRDNAKNTVYLQMNSLKPEDTAVYYCAIEPPPVKGDYWGQGTQVTVSS | low polyreactivity
35 | QVQLVESGGGLVQAGGSLRLSCAASGRTFFNYGMGWYRQAPGKEREFVARISFSGGSTYYADSVKGRFTISRDNAKNTVYLQMNSVKPEDTAVYYCNARVFPFAYRYGYWGQGTQVTVSS | high polyreactivity
36 | QVQLVESGGGLVQAGGSLRLSCAASGRTFFRNVMGWYRQAPGKERELVAGITWTGGTTYYADSVKGRFTISRDNAKNTVYLQMNSLKPEDTAVYYCATRNYAVVPSVRREGYYWGQGTQVTVSS | low polyreactivity
37 | QVQLVESGGGLVQAGGSLRLSCAASGRTFFRYVMGWYRQAPGKERELVAAISRSGGSTYYADSVKGRFTISRDNAKITVYLQMNSLKPEDTAVYYCNTVARSTVVPTEFDYWGQGTQVTVSS | high polyreactivity
38 | QVQLVESGGGLVQAGGSLRLSCAASGRTFFSYAMGWYRQAPGKERELVAAITYSGGRTYYADSVKGRFTISRDNAKNTVYLQMNSLKPVDTAVYYCAATHYREKMDYWGQGTQVTVSS | low polyreactivity
39 | QVQLVESGGGLVQAGGSLRLSCAASGRTFFTYAMGWYRQAPGKERELVAAITGSGGSTSYADSVKGRFTISRDNAKNTVYLQMNSLKPEDTAVYYCAADWQELEYDYWGQGTQVTVSS | low polyreactivity
40 | QVQLVESGGGLVQAGGSLRLSCAASGRTFFVYTMGWYRQAPGKERELVAAITSDTSTTYADSVKGRFTISRDNAKNTVYLQMISLKPEDTAVYYCAAEGYVGYYDYDYWGQGTQVTVSS | low polyreactivity
41 | QVQLVESGGGLVQAGGSLRLSCAASGRTFFWNAMGWYRQAPGTERELVAAITWSGGSTYYADSVKGRFTLSRDNAKNTVYLQMNSLKPEDTAVYYCAAVVSEYVWRYEYWGQGTQVTVSS | low polyreactivity
42 | QVQLVESGGGLVQAGGSLRLSCAASGRTFFWYAMGWYRQAPGKERDLVAAIRGAGRTNYADSVKGRFTISRYNAKNTVYLQMNSLKPEDTAVYYCAAQHYPWRRYDYWGQGTQVTVSS | high polyreactivity
43 | QVQLVESGGGLVQAGGSLRLSCAASGRTFFYNAMGWYRQAPGKERELVAAISSGGGSTYYADSVKGRFTISRDNAKNTVYLQMNSLKPEDTAVYYCAAASYRQPGYGYWGQGTQVTVSS | high polyreactivity
